Data reported in patent US7202089B2, “Early diagnosis of stroke” (priority 2001, dated 2007).

Test: Fatty acid binding of fluorescently labeled I-FABP probes (fluorescence ratio)
Conditions: FFA binding; ADIFAB2 compared with ADIFAB
Experimental: In a preferred embodiment, a fluorescently-labeled FABP is acrylodan-derived recombinant rat intestinal fatty acid binding protein (referred to as ADIFAB). Derivatization with acrylodan was performed using known methods substantially as previously described (U.S. Pat. No. 5,470,714 & Richieri, G. V, et al., J. Biol. Chem., (1992) […]: 23495–23501), and ADIFAB is commercially available (FFA Sciences LLC, San Diego, Calif. ). Concentrations of FFAu can be determined by the binding of the FFAu to the fluorescently labeled fatty acid binding protein (FABP). […] The concentration of FFAu can be determined from the fluorescence difference. […] It will be understood that those skilled in the art can readily substitute other fluorescently-labeled FABP in the disclosed assay.
The assay for determination of FFAu levels in aqueous samples measures the intensity of a shift in fluorescence from a first wavelength, at which the derivatized FABP fluoresces when no FFA is bound, to a second wavelength, at which the derivatized FABP fluoresces when a molecule of FFA is bound, and the concentration of FFAu is then determined from the ratio (“R” value) of the two intensities of fluorescence wavelengths as described in U.S. Pat. No. 5,470,714 and Richieri, et al. (1995) J. Lipid Research, vol. […] Briefly, the ratio is calculated using the following formula: […]

binding affinities relative to ADIFAB: about 10 fold
B1: ADIFAB2: acrylodan-derivatized rat intestinal fatty acid binding protein (I-FABP) with substitution of Ala for Leu at position 72 (protein, UniProt P02693 2-132, looked up, variant L72A)
Fatty acid-binding protein, …: AFDGTWKVDRNENYEKFMEKMGINVVKRKLGAHDNLKLTITQEGNKFTVKESSNFRNIDVVFELGVDFAYSAADGTELTGTWTMEGNKLVGKFKRVDNGKELIAVREISGNELIQTYTYEGVEAKRIFKKE
modifications: acrylodan label
